Data as given in the NTF2 design screens of Basanta et al. (2020).

Experiment: protease stability score; higher = more stable; yeast display proteolysis, trypsin and chymotrypsin;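 further: relative to predicted unfolded state with 0 unfolded-like and 1 meaning tenfold more protease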

| Sequence | protease stability score |
| --- | --- |
| SEDHELLKRELETFIKHLETGDEDILRRLADPHVRLEYNGKEFHGRDRIVEEWVRIAREIRIKVEIHHITYIGDKLEVDTILKIEQGDKRTEFRIEIFIQKVNGQWLLKEIKIK | 1.44 |
| SEDHELRKHLADRTYKWLATGNFEELMKLMDPNTRFTIGEFNDHGRKAIEWLWRELGVDHFHFREIRVQGDKIHMDTEFEFNGVKVRTHFRVIVIDGRVTSVIILTE | 1.34 |
| SEDHELVHRFTHFFLRMYFTGDEKEMEDLLDPNTRILWNGKEFHGREEVIEALRYIRSHARIRDFTIHSFEIFDGRAKMDTREHGEIDGRLRTFTLRLHILKVNGRWQFQEIQIE | 2.12 |
| SEDHEMAKRIVKQFMEEIFTGDWRDFEELLDPDVRIIIGDKELHGREQFELELRHMRRSIDEMHFTDAKVVGDKMIFDTRMKITIHVNGKELRFTTKSTFFILKVDGVWRIRQITVL | 2.13 |
| SEDHEMVKKLIHDLMRARSTGDEEEFYKLLDPHVRSDINGQETHGREEFVHWFIRHHHEFGFDHVERVHLHHIELIGDKIHVDLIVHITVGEYTIVTHEHLVIWKIDGRWVLRSMDLH | 1.43 |
| SEDHENIERFLTHFVTAIETGNFNELEKLLDPNAQIEINGQRIHGREWFVDHIRRIKNIRFEIHVEDSEFYNGKAHIRTRLILKYGDKEREHDVVLVIRKINGRWVIEWIIIE | 1.54 |
| SEDHENLRKSLEFFKHVVDTGDFRKLLQLADPNTRIIINGQTVHGMELTQKIWIHQFREAGHTRIHIRIEDIDVQGDKIQIDGKLDINGQERDTNLFIEKVNGRWIIRSIEFQ | 1.38 |
| SEDHERERRVNEEFLTAMWTGDEKWIMNLADPNVRTEWNGVENIGRETISEHLDHQKKRLGVKHIEIKHVEIINGVLHMHGRLDVNGVETEVIIRSFIIDGRLTELIFEIR | 0.819 |
| SEDHERMKEMIELTLHAIFTGDEDLLKRLLDPHTRIVVNGQDRHGRHALEWFLSVLGIKHIHYEIVRTHLVNGVLHNHIHGHLNVNGKTYELEVEITIRKINGRWLMHVVQWDII | 1.99 |
| SEDHERTEIAFKIMLHIFDTGDEHTMHRLVDPNARLRIGDKDWHGREFFFDVISRIKNLRIEELSIEDDDFVNGRIILHGRRNGSIGDKEIDTIVHLLIKKVDGRWRIEHVHNE | 1.36 |
| SEDHEVARDIMEILLHLYLTGNEEDLKQFFDPHVRLVIGDKNIHGREEVVNHLKRILDRIPNVRVKHFTLHDIRIIGDKIYLNTEIHVKINGRDHRSETRWVILKVDGVWHLHSVEVG | 2.05 |
| SEDHEVLRVALELMLHFLTTGDWHLLRKLMDPEVRIRVGEKHIHGMDLILSEWVRVIRELGVKHYHIEVKRDHHQGDKIHLDGTLHIDVNGRQIHIRTEIIAHKVDGKWIHESQVIN | 0.988 |
| SEDHHETQRALELLVTFLRTGDEHTLERLMDPDTRSIIDGVELHGREDMKEVLEWLVKQADHLESVHVRYLNVQGDKAQIHVELRGRFNGKHSIHEVHITTVKINGKWLITEVEFR | 1.93 |
| SEDHHLMEHAIEIMLEMIRTGDEQKYLNLVDPHARLEIDGREHHGWKRMREVFRWLGVDHSDVRHVNVQGEKVEVDTIIEVGDKRIEVIVIVRKINGRWVIEEVRVH | 0.549 |
| SEDHHSLRNAWELLIKSIKTGDENLMERFADPSTKSRIDGVELVGREEVVHYFMQLRVKDVKLDEVDVVDGRVVIDGTLHGEYNGREETHKVRLFINKVDGQWILHSVEFH | 0.938 |
| SEDHKASHFNLILLLRAINTGDEDLEKELADPHVRYEFNGVDLVGMEDWVRFLEEIRVHPRDVKIQRHRVVNGRITFDVRLEGEFTYNGRTYRDTRETTAFVLKVNGRWIMHLHRID | 1.48 |
| SEDHKETEEAMHKIRHDLETGDEKSWHEQADPNTRIDINGVDLHGREWASKFYSDVMQKVKGATVHLKHVHIFENRLIVDGIEIVNGRTHRVHLIADKINGRWVIREIRVE | 1.06 |
| SEDHKQAEEFMHRVAHNVLTGDEEKLDELIDPDARLEIGDKEHHGREIFIEFWRQLRVRDIKIRHWEIIGDKIFIRGEMNGIVDGRTRIFDIIVVMVKINGKWTLKRVEIK | 1.5 |
| SEDHLEARETVTEELRARQTGDERRLDELIDPNTRLEINGKEVHGMEQIIEETRRLGVDVVEIRLERHDRFNGVIHVRGRLHYNWNGKSIDHETELIVYKVDGQWIVHSIHVL | 1.05 |
| SEDHRDAEKFLRLFMELFKTGDFEELFRLVDPNVRLEINGREFHGRELVKKLLKEEHDRYKNATSEVEIDRIHIQGDWVHADIELRLDYNGKTLRWETHLVMLKVDGRWFVRSYSER | 2.6 |
